Legend:
ERK = ERK activation in HSCs (Western blot); assay type: cell-based, human; details: stimulation with IL-11
Experimental: Western blots were carried out on total protein extracts from HSCs and liver tissues. Both cells and frozen tissues were homogenized in radioimmunoprecipitation assay (RIPA) buffer containing protease and phosphatase inhibitors (Thermo Scientifics), followed by centrifugation to clear the lysate. Protein concentrations were determined by Bradford assay (Bio-Rad). Equal amount of protein lysates were separated by SDS-PAGE, transferred to PVDF membrane, and subjected to immunoblot analysis for the indicated primary antibodies. Proteins were visualized using the ECL detection system (Pierce) with the appropriate secondary antibodies.

IL-11Rα = IL-11Rα alone, low affinity; cited from earlier work
PSCs = test: Pancreatic stellate cell (PSC) activation in vitro; assay type: cell-based; details: treatment with IL-11, 24 hours
Experimental: FIGS. 48A and 48B. Box plots and images showing activation of pancreatic stellate cells (PSCs) to a αSMA-positive, collagen-expressing fibrogenic phenotype. (A) Quantification of high-content imaging assays for the percentage of ACTA2-positive cells and collagen I intensity/area following in vitro stimulation of PSCs for 24 hours with the indicated factors, in the presence or absence of neutralising anti-IL-11 RA antibody or IgG isotype control antibody. (B) Representative images for high-content imaging analysis of collagen I intensity/area following in vitro stimulation of PSCs for 24 hours with the indicated factors, in the presence of neutralising anti-IL-11 RA antibody or IgG isotype control antibody.

HSCs [1] = test: HSC-to-myofibroblast transformation (ACTA2/Collagen I, Operetta); assay type: cell-based, human; details: IL-11 5 ng/ml, 24 h
Experimental: Cells (atrial fibroblasts, HSCs and hepatocytes) were grown and maintained at 37° C. and 5% CO2. The growth medium was renewed every 2-3 days and cells were passaged at 80-90% confluence using standard trypsinization techniques. All the experiments were carried out at low cell passage (P1-P2). Cells were serum-starved for 16 h prior to stimulations. Stimulated cells were compared to unstimulated cells that have been grown for the same duration under the same conditions (serum-free media), but without the stimuli.
HSCs (5300, ScienCell) were cultured in stellate cells complete media (5301, ScienCell) on poly-L-lysine-coated plates (2 μg/cm2, 0403, ScienCell).
The Operetta assay was performed mostly as described previously 11 with minor modifications described here: HSCs or hepatocytes were seeded in 96-well black CellCarrier plates (PerkinElmer) at a density of 5×10^3 cells per well. Following experimental conditions, cells were fixed in 4% paraformaldehyde (PFA, 28908, Thermo Fisher), permeabilized with 0.1% Triton X-100 (Sigma) and non-specific sites were blocked with 0.5% BSA and 0.1% Tween-20 in PBS. Cells were incubated overnight (4° C.) with primary antibodies (1:500), followed by incubation with the appropriate AlexaFluor 488 secondary antibodies (1:1000). Rhodamine Phalloidin staining (1:1000, R415, Thermo Fisher) was performed by overnight incubation (4° C.). […]

[2] = system: primary human hepatocytes; test: Stimulation of primary human hepatocytes with IL11, hyperIL11, hyperIL6; assay type: cell-based
Experimental: Human hepatocytes (5200, ScienCell) were grown and maintained in hepatocyte media (5201, ScienCell) supplemented with 2% fetal bovine serum (FBS) and 1% Penicillin-streptomycin.
Primary human hepatocytes (5200, ScienCell) were maintained in hepatocyte medium ([…], ScienCell) supplemented with 2% fetal bovine serum, 1% Penicillin-streptomycin at 37° C. and 5% CO2. Hepatocytes (P2-P3) were serum-starved overnight unless otherwise specified in the methods prior to 24 hours stimulation with different doses of various recombinant proteins as described.
For surface IL11RA, IL6R, and gp130 analysis, primary human hepatocytes and THP-1 cells were stained with IL11RA, IL6R, or gp130 antibody and the corresponding Alexa Fluor 488 secondary antibody. Cell death analysis was performed by staining primary human hepatocytes with Dead Cell Apoptosis Kit with Annexin V FITC and PI (V13242, Thermo Fisher). PI+ve cells were then quantified with the flow cytometer (Fortessa, BD Biosciences) and analyzed with FlowJo version X software (TreeStar).
Alanine Aminotransferase (ALT) activity in the cell culture supernatant and mouse serum was measured using ALT Activity Assay Kit (ab105134, Abcam). Liver Glutathione (GSH) levels were measured using Glutathione Colorimetric Detection Kit (EIAGSHC, Thermo Fisher). Total hydroxyproline content in mouse livers was measured using Quickzyme Total Collagen assay kit (QZBtotco15, Quickzyme Biosciences). The levels of serum and liver triglycerides were measured using Triglyceride Assay Kit (ab65336, Abcam). Mouse serum levels of Aspartate Aminotransferase (AST) and cholesterol were measured using AST Assay Kit (ab105135, Abcam) and Cholesterol Assay Kit (ab65390; Abcam), respectively. All colorimetric assays were performed according to the manufacturer's protocol.
Western blots were carried out on total protein extracts from hepatocytes and liver tissues. Hepatocyte and liver tissue lysates were homogenized in RIPA Lysis and Extraction Buffer (89901, Thermo Scientific) containing protease and phosphatase inhibitors (Roche). Protein lysates were separated by SDS-PAGE and transferred to PVDF membranes. Protein bands were visualized using the ECL detection system (Pierce) with the appropriate secondary antibodies: anti-rabbit HRP or anti-mouse HRP.

HSCs [3] = test: Matrigel invasion assay of HSCs; assay type: cell-based, human; details: 48 h
Experimental: The invasive behavior of human HSCs was assayed using 24-well Boyden chamber invasion assays (Cell Biolabs Inc.). Equal numbers of HSCs in serum-free HSC media were seeded in triplicates onto the ECM-coated matrigel and were allowed to invade towards HSC media containing 0.2% FBS. After 48 h of incubation with stimuli, media was aspirated and non-invasive cells were removed using cotton swabs. The cells that invaded towards the bottom chamber were stained with cell staining solution (Cell Biolabs Inc.) and invasive cells from 5 non-overlapping fields/membrane were imaged and counted under 40× magnification. For antibody inhibition experiments, HSCs were pretreated with X203, X209, or IgG control antibodies for 15 m prior to addition of stimuli.

HSCs [4] = test: CCL2 secretion by HSCs (ELISA); assay type: cell-based, human; details: IL-11 5 ng/ml
Experimental: FIG. 31A to 31H. Neutralizing anti-IL-11 and anti-IL11 RA antibodies protect HFMCD-fed mice from hepatic fibrosis and inflammation. (A) CCL2 in the supernatants of HSCs (n=4/group) without stimulus (−), with IL-11, or with TGFβ1 in the presence of IgG, X203, or X209 by ELISA; IL-11 (5 ng m1^−1), TGFβ1 (5 ng m1^−1), IgG, X203, and X209 (2 μg m1^−1). (B) Representative gross liver images, (C) Western blots of hepatic ERK activation status, (D) representative (scale bars, 100 μm) and (E) quantification of Masson's Trichrome stained images of livers after 5 weeks of early X203 and X209 treatments. (F) Liver hydroxyproline content (the values of NC and HFMCD 1 week diets are the same as those used in FIG. 25C, the values of IgG 3 and 6 weeks are the same as those used in FIG. 22F, n≥5/group), (G) relative RNA expression levels of fibrosis markers in the livers after 5 weeks treatment of X203 and X209 by qPCR, which confirms data from RNA-seq (the values of NC 6 week for Col1a1, Col1a2, Col3a1, and Acta2 are the same as those shown in FIG. 28D, n≥5/group), and (H) serum ALT levels (the values of NC and HFMCD 1 week are the same as those used in FIG. 25D, the values of IgG 3 and 6 weeks (2 weeks and 5 weeks treatment, respectively) are the same as those used in FIG. 22G, n≥5/group). […]

B1: IL-11: Interleukin 11; recombinant human IL11 (UniProtKB:P20809) used to stimulate cells (protein, listed as Homo sapiens)
chain: MNCVCRLVLVVLSLWPDTAVAPGPPPGPPRVSPDPRAELDSTVLLTRSLLADTRQLAAQLRDKFPADGDHNLDSLPTLAMSAGALGALQLPGVLTRLRADLLSYLRHVQWLRRAGGSSLKTLEPELGTLQARLDRLLRRLQLLMSRLALPQPPPDPPAPPLAPPSSAWGGIRAAHAILGGLHLTLDWAVRGLLLLKTRL
modifications: IL-11 (UniProt P20809)
notes: Interleukin 11; recombinant human IL11 (UniProtKB:P20809) used to stimulate cells
ERK activation in HSCs (ERK): directly activates ERK
Kd (IL-11Rα): ~10 nM
PSC activation (PSCs): triggered
activation of HSCs into ACTA2+ve myofibroblasts (HSCs [1]): activated HSCs to a similar extent as TGFβ1 or PDGF
hepatocyte cell death ([2]; IL11 0.625 ng/ml to 20 ng/ml): caused hepatocyte cell death
expression of stress fibres in hepatocytes ([2]; IL-11, dose range): progressive increase in expression of stress fibres
release of ALT from hepatocytes ([2]; physiological levels of IL-11): dose-dependent release of ALT
matrix invasion by HSCs (HSCs [3]): promoted dose-dependent matrix invasion
HSC production of CCL2 (HSCs [4]): stimulated HSC production of CCL2
